Data as given in PMC12177876, “Nanoflow Size Exclusion Chromatography–Native Mass Spectrometry of Intact Proteoforms and Protein Complexes” (Analytical Chemistry, 2025).

B1: alcohol dehydrogenase (enzyme, UniProt P00330 1-348, looked up)
chain: MSIPETQKGVIFYESHGKLEYKDIPVPKPKANELLINVKYSGVCHTDLHAWHGDWPLPVKLPLVGGHEGAGVVVGMGENVKGWKIGDYAGIKWLNGSCMACEYCELGNESNCPHADLSGYTHDGSFQQYATADAVQAAHIPQGTDLAQVAPILCAGITVYKALKSANLMAGHWVAISGAAGGLGSLAVQYAKAMGYRVLGIDGGEGKEELFRSIGGEVFIDFTKEKDIVGAVLKATDGGAHGVINVSVSEAAIEASTRYVRANGTTVLVGMPAGAKCCSDVFNQVVKSISIVGSYVGNRADTREALDFFARGLVKSPIKVVGLSTLPEIYEKMEKGQIVGRYVVDTSK
notes: The tetramer mass fits S. cerevisiae ADH1; this is surmised, the source is in the supplement; also called ADH
B2: catalase (enzyme, UniProt P00432 1-527, looked up)
chain: MADNRDPASDQMKHWKEQRAAQKPDVLTTGGGNPVGDKLNSLTVGPRGPLLVQDVVFTDEMAHFDRERIPERVVHAKGAGAFGYFEVTHDITRYSKAKVFEHIGKRTPIAVRFSTVAGESGSADTVRDPRGFAVKFYTEDGNWDLVGNNTPIFFIRDALLFPSFIHSQKRNPQTHLKDPDMVWDFWSLRPESLHQVSFLFSDRGIPDGHRHMNGYGSHTFKLVNANGEAVYCKFHYKTDQGIKNLSVEDAARLAHEDPDYGLRDLFNAIATGNYPSWTLYIQVMTFSEAEIFPFNPFDLTKVWPHGDYPLIPVGKLVLNRNPVNYFAEVEQLAFDPSNMPPGIEPSPDKMLQGRLFAYPDTHRHRLGPNYLQIPVNCPYRARVANYQRDGPMCMMDNQGGAPNYYPNSFSAPEHQPSALEHRTHFSGDVQRFNSANDDNVTQVRTFYLKVLNEEQRKRLCENIAGHLKDAQLFIQKKAVKNFSDVHPEYGSRIQALLDKYNEEKPKNAVHTYVQHGSHLSAREKANL
notes: Bovine liver catalase is surmised; the source is in the supplement

Target: the molecule itself
Test: SEC + native MS; nanoflow SEC-nMS of reference proteins: 50 nL of 1 mg mL^-1 protein injected, 200 um ID capillary SEC column, 0.5 uL min^-1, eluted with 200 mM AmAc; isCID varies by protein

Row | Protein | stoichiometry N
1 | B1 | 4
2 | B2 | 4
